# Reference: article PMC4231745
# Assays:
# [1] = target: His-MS2-MBP (MS2 coat protein fused to maltose binding protein) (bacteriophage MS2) (UniProt P03612); assay: SPR; conditions: kon/koff fit, HBS-EP+; SPR: HBS-EP+ running buffer, Biacore X100, binding temperature not given; gel cleavage: 500 uM MgCl2, 150 mM NaCl, 1 mM DTT, 10 mM HEPES pH 7.4, 37 C
# [2] = target: His-MS2-MBP (MS2 coat protein fused to maltose binding protein) (bacteriophage MS2) (UniProt P03612); assay: ribozyme cleavage inhibition (gel); conditions: SPR: HBS-EP+ running buffer, Biacore X100, binding temperature not given; gel cleavage: 500 uM MgCl2, 150 mM NaCl, 1 mM DTT, 10 mM HEPES pH 7.4, 37 C
# Chain of UniProt P03612 (P03612 whole entry, the tested form may be a part): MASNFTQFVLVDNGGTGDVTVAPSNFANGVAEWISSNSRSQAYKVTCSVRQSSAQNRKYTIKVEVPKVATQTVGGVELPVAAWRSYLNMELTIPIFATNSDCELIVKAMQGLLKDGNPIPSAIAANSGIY
Sequence,Kd [1] [nM],IC50 [2] [nM]
GCUGUCACCGGAAUCAAGGUCCGGUCUGAUGAGUCCGACCAUCAGGAGGACGAAACAGC [MS2-B3],296,–
GCUGUCACCGGAAUCAAGGUCCGGUCUGAUGAGUCCGUUGUCCACCAUCAGGGGACGGGACGGAGGACGAAACAGC [MS2-A2],6.08,19
GCUGUCACCGGAUGUGCUGCAGGAUCACCGCAUUUCCGGUCUGAUGAGUCCGUGAGGACGAAACAGC [MS2-B1],630,–
GCUGUCACCGGAUGUGCUUUCCGGUCUGAUGAGUCCGUGGUCCACCAUCAGGGGACUGGACUGAGGACGAAACAGC [MS2-A3],253,–
GCUGUCACCGGAUGUGCUUUCCGGUCUGAUGAGUCCGUUGCGUAGGAUCACCACGUGGCGCGGAGGACGAAACAGC [MS2-A8],50,–
GCUGUCACCGGAUGUGCUUUCCGGUCUGAUGAGUCCGUUGUCCAGGAUCACCGGACGGGACGGAGGACGAAACAGC [MS2-A1],24.5,63
GCUGUCACCGGAUGUGCUUUCCGGUCUGAUGAGUCCGUUGUCCUAGGAUCACCAGGAAGGGACGGAGGACGAAACAGC [MS2-A7],279,–
GCUGUCACCGGAUGUGGUUUCCGGUCUGAUGAGUCCGACCAUCAGGAGGACGAAACAGC [MS2-B2],237,–
GCUGUCACCGGAUUCGGGAUCCGGUCUGAUGAGUCCGACCAUCAGGAGGACGAAACAGC [MS2-B4],224,–
